Test [1] deals with T1, (His)6-KcsA, K+ channel from Streptomyces lividans (Streptomyces lividans), P0A334.
T1 chain: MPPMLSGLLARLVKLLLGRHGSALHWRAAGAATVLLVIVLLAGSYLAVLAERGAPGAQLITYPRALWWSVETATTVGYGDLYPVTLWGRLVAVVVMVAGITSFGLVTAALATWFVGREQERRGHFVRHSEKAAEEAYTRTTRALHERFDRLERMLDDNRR
Briefly: SEC. The conditions noted are these: remark: other sources report otherwise.

The target in test [2] is T1, (His)6-KcsA, K+ channel from …. Briefly: SDS-PAGE with Western blot. As to conditions: remark: other sources report otherwise. (Immunoblotting shows a protein as a band on a membrane.)

Consider 1 molecule from paper PMC5662131.

Usually stoichiometry N stands for the number of molecules, sites or subunits per partner or assembly.

B1: (His)6-KcsA, K+ channel from Streptomyces lividans, P0A334 1-160 (natural protein)
chain: T1 chain
With B1, the stoichiometry N in test [1] and in test [2] was 4 each time.
